One substance from patent publication US6352972 can be followed below.

This experiment has as its target collagen (collagen-coated wells, source not stated). Nature of the experiment: cell-based or functional assay.

The substance “human platelet-derived TGFβ1 (commercial) (from UniProt P01137 279-390) (ligand)” came in with a proliferation of 3T3 cells of 15 fold.
